Target: SK56
Test: MST

Kd: ~220 nM
B1: GSDMC-NT–GFP (domain or fragment)
chain: MPSMLERISKNLVKEIGSKDLTPVKYLLSATKLRQFVILRKKKDSRSSFWEQSDYVPVEFSLNDILEPSSSVLETVVTGPFHFSDIMIQKHKADMGVNVGIEVSVSGEASVDHGCSLEFQIVTIPSPNLEDFQKRKLLDPEPSFLKECRRRGDNLYVVTEAVELINNTVLYDSSSVNILGKIALWITYGKGQGQGESLRVKKKALTLQKGMVMAYKRKQLVIKEKAILISDDDEQRTFQD
